Positions count from the first letter of the chain named.
B1: M0108-C10 (Fab, V domains shown)
VH: EVQLLESGGGLVQPGGSLRLSCAASGFTFSRYVMAWVRQAPGKGLEWVSVIRPSGGKTLYADSVKGRFTISRDNSKNTLYLQMNSLRAEDTAVYYCARVAGRVGVPATKKNWFDPWGQGTLVTVSS
VL: AQSVLTQPASVSGSPGQSITISCTGTSSDVGGYNYVSWYQQHPGQPPKLIIYEVSNRASGVSNRFSGSKFGNTASLTISGLQSEDEADYHCSSYTSSTTLLFGGGTRLTVLG
B2: M0092-B12 (Fab, V domains shown)
VH: EVQLLESGGGLVQPGGSLRLSCAASGFTFSQYLMAWVRQAPGKGLEWVSSIYPSGGNTNYADSVKGRFTISRDNSKNTLYLQMNSLRAEDTAVYYCARDRSIVPYSSSWYMPRDYYYGMDVWGQGTTVTVSS
VL: DIQMTQSPSSLSASVGDRVTITCRASQGISNYLAWYQQKPGKVPKLLIYAASTLQSGVPSRFSGSGSGTDFTLTISSLQPEDFATYYCQQSYSTPYTFGQGTKLEVRR
B3: M0139-A04 (Fab, V domains shown)
VH: EVQLLESGGGLVQPGGSLRLSCAASGFTFSHYPMTWVRQAPGKGLEWVSSIRPSGGNTGYADSVKGRFTISRDNSKNTLYLQMNSLRAEDTAVYYCARLTGYSSGWFWAYGMDVWGQGTTVTVSS
VL: DIQMTQSPGTLSLSPGDRATLSCRASQSVSSSYLAWYQQKAGQAPRLLIYGAASRATGIPDRFSGSGSGTDFTLTISRLEREDFAVYYCQQYGSSPLITFGQGTRLEIKR
B4: M0096-E11 (Fab, V domains shown)
VH: EVQLLESGGGLVQPGGSLRLSCAASGFTFSHYLMYWVRQAPGKGLEWVSSIYPSGGFTAYADSVKGRFTISRDNSKNTLYLQMNSLRAEDTAVYYCARRGVYGTFDIWGQGTMVTVSS
VL: DIQMTQSPLSLSASVGDRVTMTCRASQTISSYLNWYQQKPGKAPKLLIYTTSSLQSGVPSRFSGSGSGTEFTLTISSLQPEDFATYYCQQSHSSPTFGGGTKVEIKR
B5: M0099-C12 (Fab, V domains shown)
VH: EVQLLESGGGLVQPGGSLRLSCAASGFTFSRYAMHWVRQAPGKGLEWVSSIWPSGGATFYADSVKGRFTISRDNSKNTLYLQMNSLRAEDTAVYYCATSPTLNAFHIWGQGTMVTVSS
VL: AQSVLTQPASVSGSPGQSITISCTGTTSDVGGYKYVSWYQHHPGKVPKLIIYEVNHRPSGVSHRFSGSKSGNTASLIISALQAEDEADYYCYSYTSDSTPYVFGTGTKVTVL
B6: M0099-A09 (Fab, V domains shown)
VH: EVQLLESGGGLVQPGGSLRLSCAASGFTFSRYAMFWVRQAPGKGLEWVSSISPSGGKTRYADSVKGRFTISRDNSKNTLYLQMNSLRAEDTAVYYCARGGGTALDYWGQGTLVTVSS
VL: DIQMTQSPGTLSLSPGERATLSCRASQSVYSSYLAWYQQKPGQAPRLLIYAASNRAIGIPDRFSGSGSGTDFTLTISSMQPEDFATYYCQQSYSTPRFGQGTKLEIKR
B7: M0125-C04 (Fab, V domains shown)
VH: EVQLLESGGGLVQPGGSLRLSCAASGFTFSHYVMDWVRQAPGKGLEWVSSIYPSGGWTRYADSVKGRFTISRDNSRNTLYLQMNSLRAEDTAVYYCARRGQWLVLDYWGQGTLVTVSS
VL: AQSELTQPASVSGSPGQSITISCAGTSSDLGGYDYVSWYQQYPGKAPKLIIYQVGRRPSGVSNRFSGSKSGNTASLTISGLQTEDEADYYCSSYTSSRTRVFGGGTRVTVLG
B8: M0103-A03 (Fab, V domains shown)
VH: EVQLLESGGGLVQPGGSLRLSCAASGFTFSHYPMSWVRQAPGKGLEWVSYIRSGGYTTYADSVKGRFTISRDNSKNTLYLQMNSLRAEDTAVYYCARERVFCSGGRCGSYFDYWGQGTLVTVSS
VL: DIQMTQSPSSVSASVGDRVTITCRASQDVRRFLAWYQQKPGKAPKLLIYAASSLQSGVPSRFSGSGSGTDFTLTISSLQPEDFATYYCQQANSFPITFGQGTRLEIKR
B9: M0138-B06 (Fab, V domains shown)
VH: EVQLLESGGGLVQPGGSLRLSCAASGFTFSPYTMSWVRQAPGKGLEWVSGIYPSGGETWYADSVKGRFTISRDNSKNTLYLQMNSLRAEDTAVYYCAKNINLRYDILTGYFDFWGQGTMVTVSS
VL: B8 VL with D28G, V29I, R30S, R31S, F32W, I96L, Q100G, R103K, L104V
B10: M0105-F02 (Fab, V domains shown)
VH: EVQLLESGGGLVQPGGSLRLSCAASGFTFSRYWMAWVRQAPGKGLEWVSSIGPSGGSTKYADSVKGRFTISRDNSKNTLYLQMNSLRAEDTAVYYCARTARWLSFDYWGQGTLVTVSS
VL: DIQMTQSPSTLSASVGDRVTITCRASQSISSWLAWYQQKPGEAPKLLIYAASSLRNGVPSRFIGSGSGTDFTLTISSLQPEDFATYYCQQSYSTPPTFGGGTKVEIKR
B11: M0129-B09 (Fab, V domains shown)
VH: B10 VH with A35H, S57V, T99H, A100G, R101S, L103G, S104G, F105M, Y107V, L113T
VL: DIQMTQSPSFLSASVGDRVTITCRASQGISSYLAWYQQKPGKAPKLLIYAASTLQSGVPSRFSGSGSGTEFTLTISSLQPEDFATYYCQQLNSYPRTFGQGTKVEIKR
B12: M0111-B02 (Fab, V domains shown)
VH: EVQLLESGGGLVQPGGSLRLSCAASGFTFSKYWMAWVRQAPGKGLEWVSVIYPSGGQTKYADSVKGRFTISRDNSKNTLYLQMNSLRAEDTAVYYCTLMRYGDRFDYWGQGTLVTVSS
VL: AQYELTQDPAVSVALGQTVRITCQGDSLRSYYASWYQQKPGQAPVLVIYSKSNRPSGIPDRFSGSSSGSTASLTITGAQAEDEADYYCNSRDSSGNHLVFGGGTKLTVL
B13: M0112-C02 (Fab, V domains shown)
VH: EVQLLESGGGLVQPGGSLRLSCAASGFTFSNYYMLWVRQAPGKGLEWVSYIRSSGGSTRYADSVKGRFTISRDNSKNTLYLQMNSLRAEDTAVYYCAKPTVDGAFDYWGQGTLVTVSS
VL: DIQMTQSPGTLSLSPGDRATLSCRASQSVSSNYLAWYQQKPGQAPRLLIYGASSRATGIPDRFSGSGSGTDFTLTISRLEPEDFGVYYCQQFGSSLFTFGPGTKVNIKR
B14: M0122-H04 (Fab, V domains shown)
VH: EVQLLESGGGLVQPGGSLRLSCAASGFTFSRYAMAWVRQAPGKGLEWVSSIGSSGGVTKYADSVKGRFTISRDNSKNTLYLQMNSLRAEDTAVYYCAAPRGRYYYDSSGYYYGGVFDYWGQGTLVTVSS
VL: AQYELTQPRSVSGSPGQSVTISCTGTSSDVGGFNYVSWYQQHPGKAPKLMIYDVSKRPSGVPDRFSGSKSGTTASLTISGLQADDEADYYCCSYTGNYTYVFGTGTKVTVLG

The binders below were run against T1, hK1 (human tissue kallikrein 1), recombinant (human, UniProt P06870 25-262) (assay: SPR).
T1 construct: Expressed in P. pastoris from KLK1 cDNA and purified; enzymatically active; also called KLK1; Recombinant (Pichia) Kallikrein

Kd [nM]	koff [s⁻¹]	kon [M⁻¹ s⁻¹]	Binder
12.2	0.00431	353000	B1
12.1	0.00171	141000	B2
12.2	0.00503	411000	B3
10.1	0.00836	827000	B4
13	0.00461	354000	B5
10.7	0.00285	267000	B6
11.2	0.00536	478000	B7
10.6	0.00988	931000	B8
12.5	0.000829	66400	B9
10.9	0.0103	947000	B10
12.7	0.022	1.73e+06	B11
12.7	1170	–	B12
10.9	0.00523	481000	B13
11.8	0.000802	68200	B14

— US7329737 (DYAX, dated 2008)
